B1: 5F11 (parental) (antibody, V domains shown)
VH: QVQLQQSAAELARPGASVKMSCKASGYTFTDLSMHWIKQRPGQGLEWIGYITPSSGYTAYNQKFKGKTTLTADKSSSTAYMQLSSLTSEDSAVYYCARLILQRGAYWGQGTLVTVSA
VL: DIVLTQSPASLAVSLGQRATISCRASKNVDSYGNSFMHWYQQKPGQPPKLLIYRASNLESGIPARFGGSGSGTDFTLTINPVEADDVATYYCQQSNEDPLTFGAGTKLELK
notes: Mouse variable domains; also called 1802.3717.5F11.A11.E7; mAb 5F11
B2: 5F11-45 V9 (antibody, human IgG1, kappa)
heavy: QVQLVQSGAEVKKPGSSVKVSCKASGYTFTDLSMHWVRQAPGQGLEWMGYITPSSGYTAYNQKFKGKTTLTADKSTSTAYMELSSLRSEDTAVYYCARLILQRGAYWGQGTLVTVSSASTKGPSVFPLAPSSKSTSGGTAALGCLVKDYFPEPVTVSWNSGALTSGVHTFPAVLQSSGLYSLSSVVTVPSSSLGTQTYICNVNHKPSNTKVDKRVEPKSCDKTHTCPPCPAPELLGDDSVFLFPPKPKDTLMISRTPEVTCVVVDVSHEDGEVKFNWYVDGVEVHNAKTKPREEQYNSTYRVVSVLTVLHQDWLNGKEYKCKVSNKALPRPIEKTISKAKGQPREPQVYTLPPSREEMTKNQVSLTCLVKGFYPSDIAVEWESNGQPENNYKTTPPVLDSDGSFFLYSKLTVDKSRWQQGNVFSCSVMHEALHNHYTQKSLSLSPG
light: DIVLTQSPDSLAVSLGERATINCRASKNVDSYGNSFMHWYQQKPGQPPKLLIYRASNLESGVPDRFSGSGSGTDFTLTISSLQAEDVAVYYCQQSNEDPLTFGQGTKLEIKRTVAAPSVFIFPPSDEQLKSGTASVVCLLNNFYPREAKVQWKVDNALQSGNSQESVTEQDSKDSTYSLSSTLTLSKADYEKHKVYACEVTHQGLSSPVTKSFNRGEC
B3: 5F11-45-V9-DA-sup (antibody, human IgG1, kappa)
heavy chain: B2 heavy with D270A
light chain: B2 light
notes: Tested as supernatant of antibody-producing cells; also called 5F11-45 V9 D270A
B4: 5F11-45 V4 (antibody, human IgG1, kappa)
heavy: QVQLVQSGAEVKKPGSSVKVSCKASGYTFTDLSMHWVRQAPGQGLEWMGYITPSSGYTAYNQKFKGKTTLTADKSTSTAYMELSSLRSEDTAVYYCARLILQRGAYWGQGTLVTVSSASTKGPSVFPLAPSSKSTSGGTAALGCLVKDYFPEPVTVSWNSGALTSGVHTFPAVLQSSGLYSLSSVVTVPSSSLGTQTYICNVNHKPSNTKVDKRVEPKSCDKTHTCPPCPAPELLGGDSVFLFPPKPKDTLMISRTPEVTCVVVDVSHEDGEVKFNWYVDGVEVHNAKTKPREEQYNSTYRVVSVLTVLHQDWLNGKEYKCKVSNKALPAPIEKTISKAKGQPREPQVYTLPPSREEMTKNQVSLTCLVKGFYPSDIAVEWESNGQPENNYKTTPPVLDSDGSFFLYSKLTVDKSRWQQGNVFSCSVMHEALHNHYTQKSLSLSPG
light: B2 light
B5: 5F11-45 V9 D270E (antibody, human IgG1, kappa)
heavy: B2 heavy with D270E
light: B2 light
B6: 5F11-45-V9-DQ-sup (antibody, human IgG1, kappa)
heavy chain: B2 heavy with D270Q
light chain: B2 light
notes: Tested as supernatant of antibody-producing cells; also called 5F11-45 V9 D270Q
B7: 5F11-45-V9-DS-sup (antibody, human IgG1, kappa)
heavy chain: B2 heavy with D270S
light chain: B2 light
notes: Tested as supernatant of antibody-producing cells; also called 5F11-45 V9 D270S
B8: 12D6-24 V4 (antibody, human IgG1, kappa)
heavy: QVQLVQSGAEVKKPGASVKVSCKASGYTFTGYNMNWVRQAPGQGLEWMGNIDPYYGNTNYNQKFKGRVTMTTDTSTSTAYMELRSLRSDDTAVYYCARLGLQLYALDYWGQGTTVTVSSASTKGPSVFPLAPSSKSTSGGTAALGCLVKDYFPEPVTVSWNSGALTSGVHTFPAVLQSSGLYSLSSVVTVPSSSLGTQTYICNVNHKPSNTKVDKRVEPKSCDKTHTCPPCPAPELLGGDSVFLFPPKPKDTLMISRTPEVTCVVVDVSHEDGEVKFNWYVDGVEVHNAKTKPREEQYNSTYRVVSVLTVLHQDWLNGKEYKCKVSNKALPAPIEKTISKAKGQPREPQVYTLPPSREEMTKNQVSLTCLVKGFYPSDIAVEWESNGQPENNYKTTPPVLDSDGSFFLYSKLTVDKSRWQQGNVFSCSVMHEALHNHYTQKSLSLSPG
light: DIVMTQTPLSLPVTPGEPASISCRSSQSLVHSNANTYLHWYLQKPGQSPQLLIYKLTNRFFGVPDRFSGSGSGTDFTLKISRVEAEDVGVYYCSQSIHVPWTFGGGTKVEIKRTVAAPSVFIFPPSDEQLKSGTASVVCLLNNFYPREAKVQWKVDNALQSGNSQESVTEQDSKDSTYSLSSTLTLSKADYEKHKVYACEVTHQGLSSPVTKSFNRGEC

Where a chain is given by its changes, count along the chain named. Numbers in names are those of the source.

The first assay deals with T1, recombinant human CD40 monomer (human, UniProt P25942 21-193).
T1 construct: also called huCD40-monomer; soluble human CD40
T1 sequence (P25942 21-193 limits assumed): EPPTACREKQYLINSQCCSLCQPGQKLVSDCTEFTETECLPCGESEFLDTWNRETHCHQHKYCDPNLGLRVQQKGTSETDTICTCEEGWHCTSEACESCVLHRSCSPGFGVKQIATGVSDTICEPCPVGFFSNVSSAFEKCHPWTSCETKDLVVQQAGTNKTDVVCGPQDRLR
Put plainly: BLI (Octet RED); run in parallel with 5F11-45.
For the molecule B1, the Kd turned out to be 8.2 nM.

The target in the next assay is T1, recombinant human CD40 monomer. The assay is described as follows: BLI (Octet RED); antibody supernatant captured on protein A sensors, huCD40-monomer in solution. From the text:
The closest matching human germline region sequence was selected for each mouse variable domain, and these human framework regions were used to replace murine frameworks in the “CDR graft” versions of the antibodies. Additional amino acid substitutions, such as framework back-mutations, were then made as necessary to restore the binding affinity of the humanized antibody. Further amino acid substitutions were made to eliminate sequence liabilities. The sequence relationships between the various forms of the antibodies of the present invention are provided at Table 6. The binding of various agonistic anti-huCD40 antibodies to soluble human CD40 was determined by Biolayer Interferometry (BLI) analysis using a Fortebio Octet RED (Rapid system—Extended Detection) label-free interaction analysis instrument. All studies were performed in 10 mM NaₓPO₄, 130 mM NaCl, 0.05% Surfactant P20 (pH 7.1) at 25° C. Briefly, anti-huCD40 antibody supernatants (diluted to 10 μg/ml or captured undiluted if supernatant concentration was less than 10 μg/ml) were captured on protein A coated biosensors (Pall Fortebio #18-5010) using a loading time of 90 s and shake speed of 1000 rpm. Supernatants were first screened for binding to 1 μM recombinant human CD40 monomer (huCD40-monomer) using 180 s association and dissociation times, at 1000 rpm, with two 15 s conditioning steps using 10 mM glycine pH 1.5 in between binding cycles.
Turning to B1, the Kd is 4.7 nM.

A further assay concerns the target T2, FcγRIIa-H131 (human, UniProt P12318 34-218, limits assumed).
T2 construct: Construct not described; also called hCD32a/FcγRIIa-H131
T2 sequence (looked up): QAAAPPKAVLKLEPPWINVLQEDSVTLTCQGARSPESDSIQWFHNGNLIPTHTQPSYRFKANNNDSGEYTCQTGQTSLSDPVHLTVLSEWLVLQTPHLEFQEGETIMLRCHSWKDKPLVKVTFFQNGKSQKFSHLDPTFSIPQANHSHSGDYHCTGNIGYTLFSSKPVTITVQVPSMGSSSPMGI
Put plainly: BLI (ForteBio Octet), %Rmax at 10 µM hCD32a/FcγRIIa-H131. The protocol:
(§1) See Example 8. Antibody names including “-sup” represent supernatants from antibody producing cells, whereas others are purified antibodies. Data are presented as percentages of a maximum receptor binding value for each combination of antibody and receptor, as measured in a ForteBio Octet system. See, e.g., Example 3. Each cluster of three bars represents, from left to right, binding to hCD32a/FcγRIIa-H131 (10 μM) (hatched bars), […] (10 μM) (black bars), and hCD32b/FcγRIIb (1 μM) (white bars).
(§2) Supernatants were obtained from cells expressing these antibodies and assayed for binding to hCD32/FcγRII. Selected purified antibodies without mutations at position 270 were used as controls.
In general terms: BLI is a label-free optical method that tracks binding on a fibre tip over time.
For the molecule B2, the binding result was “binds”.

For the molecule B3, the binding result is reported as “binds”.

Take B4: the binding result was “binds”.

Turning to B5, the binding result is reported as “binds”.

With B6, the binding result is listed as “binds”.

On to B7, for which the binding result was “binds”.

Another assay concerns the target T2, FcγRIIa-H131. The assay is described as follows: BLI (ForteBio Octet), % of maximum receptor binding (%Rmax) at 10 µM hCD32a/FcγRIIa-H131. The protocol:
as §1, §2
B8: the binding result is given as “binds”.

Another assay addresses T3, FcγRIIb (human, UniProt P31994 43-217, limits assumed).
T3 construct: Construct not described; also called hCD32b/FcγRIIb
T3 sequence (looked up): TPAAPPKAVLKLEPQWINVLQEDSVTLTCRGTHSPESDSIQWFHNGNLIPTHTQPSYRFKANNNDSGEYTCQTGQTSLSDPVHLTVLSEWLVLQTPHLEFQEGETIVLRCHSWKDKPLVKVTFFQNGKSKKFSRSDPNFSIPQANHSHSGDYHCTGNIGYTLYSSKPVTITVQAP
The assay is described as follows: BLI (ForteBio Octet), %Rmax at 1 µM hCD32b/FcγRIIb. The protocol:
as §1, §2
Take B8: the binding result is reported as “binds”.

On to B2, for which the binding result was “binds”.

As to B3, the binding result is recorded as “binds”.

For B4, the binding result is “binds”.

For the molecule B5, the binding result was “binds”.

Regarding B6, the binding result is reported as “binds”.

For the molecule B7, the binding result is recorded as “binds”.

The target in the next assay is T4, FcγRIIa-R131 (human, UniProt P12318 34-218, limits assumed).
T4 construct: Construct not described
T4 sequence (looked up): T2 sequence (looked up) with H134R
Put plainly: BLI (ForteBio Octet), %Rmax at 10 µM FcγRIIa-R131 (CD32a-R131 on the sheet). The protocol: as §1, §2
On to B8, for which the binding result is listed as “binds”.

As for B2, the binding result is recorded as “binds”.

For B3, the binding result is on record as “binds”.

B4: the binding result was “binds”.

For the molecule B5, the binding result was “binds”.

For the molecule B6, the binding result is listed as “binds”.

With B7, the binding result is “binds”.

Broadly, the Kd is the concentration at which binding is half-saturated.

Source of the values: US20180142030A1 (Bristol-Myers Squibb, published 2018).
